Test results: US20250340657A1 (CANTARGIA, published 2025)

Target: T1, recombinant hIL1RAP 21-367 (human, UniProt Q9NPH3 21-367)
T1 construct: range 21-367; also called Rec hIL1RAP Domain123 (aa21-367); Domain123
Assay: indirect ELISA on coated hIL1RAP 21-367, three-fold dilutions from 3.5 nM
Method: An indirect ELISA assay was performed. All samples were analysed in duplicate. Nunc-MaxiSorp 96 Micro Well™ Plates were coated with 100 ng of recombinant hIL1RAP 21-367 (100 μl/well) diluted in 0.01M PBS, pH 7.4, and incubated overnight at 4° C. Plates were washed with ELISA washing buffer (0.01M PBS, 0.05% Tween 20, pH 7.4) followed by a blocking step using 150 μl/well of ELISA blocking solution (PBS, 0.5% BSA, 0.05% Tween 20, pH 7.4). After 1 h incubation at room temperature (RT) on agitation the plates were washed again using ELISA washing buffer. Samples were diluted in three fold serial dilution (ranging from 1000 ng/ml to 0.5 ng/ml) in ELISA blocking solution and then transferred to the ELISA plate, 100 μl/well. Plates were incubated at RT for 1 h on agitation and then washed with ELISA washing solution. 100 μl/well of rabbit anti-mouse IgG conjugated to Alkaline Phosohatase (DAKO, 1:1000) was added and incubated 1 hour at RT on agitation. The plates were washed followed by addition of substrate (4-Nitrophenyl phosphatise disodium salt hexahydrate, SIGMA, 1 mg/ml), 100 μl/well. The plates were thereafter incubated at RT on agitation and absorbance at 405 nm measured consecutively for 30 min. Absorbance at 0 min was taken as background signal.
An indirect ELISA assay was performed as described above with the alteration that the samples were diluted in a three-fold serial dilution starting at 3.5 nM and run in replicates of four.

Kd	Binder
0.135 nM	hCAN04 Variant 5 (antibody, human IgG1, kappa, V domains shown, Human IgG1za / kappa, expressed in CHOK1SV cells; also called Var5; humanized variant 5 of CAN04) VH: QVQLVQSGAEVKKPGSSVKVSCKASGYAFSSSWMNWVRQAPGQGLEWMGRIYPGDGNTHYAQKFQGRVTLTADKSTSTAYMELSSLRSEDTAVYYCGEGYLDPMDYWGQGTLVTVSS VL: DIQMTQSPSSLSASVGDRVTITCQASQGINNYLNWYQQKPGKAPKLLIHYTSGLHAGVPSRFSGSGSGTDYTLTISSLEPEDVATYYCQQYSILPWTFGGGTKVEIKR
0.21 nM	hCAN04 Variant 9 (antibody, human IgG1, kappa, V domains shown, Human IgG1za / kappa, expressed in CHOK1SV cells; also called Var9; humanized variant 9 of CAN04) VH: QVQLVQSGAEVKKPGSSVKVSCKASGYAFSSSWMNWVRQAPGQGLEWMGRIYPGDGNTHYAQKFQGRVTLTADKSTSTAYMELSSLRSEDTAVYYCGEGYLDPMDYWGQGTLVTVSS VL: DIQMTQSPSSLSASVGDRVTITCQASQGINNYLNWYQQKPGKAPKLLIHYTSGLHAGVPSRFSGSGSGTDFTLTISSLEPEDVATYYCQQYSILPWTFGGGTKVEIKR
0.402 nM	hCAN04 Variant 8 (antibody, human IgG1, kappa, V domains shown, Human IgG1za / kappa, expressed in CHOK1SV cells; also called Var8; humanized variant 8 of CAN04) VH: QVQLVQSGAEVKKPGSSVKVSCKASGYTFTSSWMNWVRQAPGKGLEWMGRIYPGDGQTHYAQKFQGRVTITADKSTSTAYMELSSLRSEDTAVYYCGEGYLDPMDYWGQGTLVTVSS VL: DIQMTQSPSSLSASVGDRVTITCQASQGINNYLNWYQQKPGKAPKLLIHYTSGLHAGVPSRFSGSGSGTDYTLTISSLEPEDVATYYCQQYSILPWTFGGGTKVEIKR
0.62 nM	hCAN04 Variant 12 (antibody, human IgG1, kappa, V domains shown, Human IgG1za / kappa, expressed in CHOK1SV cells; also called Var 12; humanized variant 12 of CAN04) VH: QVQLVQSGAEVKKPGSSVKVSCKASGYTFTSSWMNWVRQAPGKGLEWMGRIYPGDGQTHYAQKFQGRVTITADKSTSTAYMELSSLRSEDTAVYYCGEGYLDPMDYWGQGTLVTVSS VL: DIQMTQSPSSLSASVGDRVTITCQASQGINNYLNWYQQKPGKAPKLLIHYTSGLHAGVPSRFSGSGSGTDFTLTISSLEPEDVATYYCQQYSILPWTFGGGTKVEIKR
0.526 nM	hCAN04 Variant 7 (antibody, human IgG1, kappa, V domains shown, Human IgG1za / kappa, expressed in CHOK1SV cells; also called Var7; humanized variant 7 of CAN04) VH: QVQLVQSGAEVKKPGSSVKVSCKASGYTFTSSWMNWVRQAPGKGLEWMGRIYPGDGQTHYAQKFQGRVTLTADKSTSTAYMELSSLRSEDTAVYYCGEGYLDPMDYWGQGTLVTVSS VL: DIQMTQSPSSLSASVGDRVTITCQASQGINNYLNWYQQKPGKAPKLLIHYTSGLHAGVPSRFSGSGSGTDYTLTISSLEPEDVATYYCQQYSILPWTFGGGTKVEIKR
0.301 nM	hCAN04 Variant 10 (antibody, human IgG1, kappa, V domains shown, Human IgG1za / kappa, expressed in CHOK1SV cells; also called Var10; humanized variant 10 of CAN04) VH: QVQLVQSGAEVKKPGSSVKVSCKASGYAFTSSWMNWVRQAPGQGLEWMGRIYPGDGNTHYAQKFQGRVTLTADKSTSTAYMELSSLRSEDTAVYYCGEGYLDPMDYWGQGTLVTVSS VL: DIQMTQSPSSLSASVGDRVTITCQASQGINNYLNWYQQKPGKAPKLLIHYTSGLHAGVPSRFSGSGSGTDFTLTISSLEPEDVATYYCQQYSILPWTFGGGTKVEIKR
0.504 nM	hCAN04 Variant 11 (antibody, human IgG1, kappa, V domains shown, Human IgG1za / kappa, expressed in CHOK1SV cells; also called Var11; humanized variant 11 of CAN04) VH: QVQLVQSGAEVKKPGSSVKVSCKASGYTFTSSWMNWVRQAPGKGLEWMGRIYPGDGQTHYAQKFQGRVTLTADKSTSTAYMELSSLRSEDTAVYYCGEGYLDPMDYWGQGTLVTVSS VL: DIQMTQSPSSLSASVGDRVTITCQASQGINNYLNWYQQKPGKAPKLLIHYTSGLHAGVPSRFSGSGSGTDFTLTISSLEPEDVATYYCQQYSILPWTFGGGTKVEIKR

Continued, binder first:

Binder	Kd
CAN04 (murine) as listed in Table 3 (antibody, human IgG1, kappa, V domains shown, Whether the footnotes apply to the row labelled '(murine)' is not certain) VH: QVQLQQSGPELLKPGASVKISCKASGYAFSSSWMNWVKQRPGKGLEWIGRIYPGDGNTHYSGKFKGKATLTADKSSSIAYMQLSSLTSEDSAVYFCGEGYLDPMDYWGQGTSVTVSS VL: DIQMTQTTSSLSASLGDRVTISCSASQGINNYLNWYQQKPDGTVKLLIHYTSGLHAGVPSRFSGSGSGTDYSLTISNLEPEDVATYYCQQYSILPWTFGGGTKLEIKR	0.088 nM
hCAN04 Variant 6 (antibody, human IgG1, kappa, V domains shown, Human IgG1za / kappa, expressed in CHOK1SV cells; also called Var6; humanized variant 6 of CAN04) VH: QVQLVQSGAEVKKPGSSVKVSCKASGYAFTSSWMNWVRQAPGQGLEWMGRIYPGDGNTHYAQKFQGRVTLTADKSTSTAYMELSSLRSEDTAVYYCGEGYLDPMDYWGQGTLVTVSS VL: DIQMTQSPSSLSASVGDRVTITCQASQGINNYLNWYQQKPGKAPKLLIHYTSGLHAGVPSRFSGSGSGTDYTLTISSLEPEDVATYYCQQYSILPWTFGGGTKVEIKR	0.173 nM
hCAN04 Variant 3 (antibody, human IgG1, kappa, V domains shown, Human IgG1za / kappa, expressed in CHOK1SV cells; also called Var3; humanized variant 3 of CAN04) VH: QVQLVQSGAEVKKPGSSVKVSCKASGYTFTSSWMNWVRQAPGKGLEWMGRIYPGDGQTHYAQKFQGRVTLTADKSTSTAYMELSSLRSEDTAVYYCGEGYLDPMDYWGQGTLVTVSS VL: DIQMTQSPSSLSASVGDRVTITCSASQGINNYLNWYQQKPGKAPKLLIHYTSGLHAGVPSRFSGSGSGTDYTLTISSLQPEDVATYYCQQYSILPWTFGGGTKVEIKR	0.45 nM
hCAN04 Variant 4 (antibody, human IgG1, kappa, V domains shown, Human IgG1za / kappa, expressed in CHOK1SV cells; also called Var4; humanized variant 4 of CAN04) VH: QVQLVQSGAEVKKPGSSVKVSCKASGYTFTSSWMNWVRQAPGKGLEWMGRIYPGDGQTHYAQKFQGRVTITADKSTSTAYMELSSLRSEDTAVYYCGEGYLDPMDYWGQGTLVTVSS VL: DIQMTQSPSSLSASVGDRVTITCSASQGINNYLNWYQQKPGKAPKLLIHYTSGLHAGVPSRFSGSGSGTDYTLTISSLQPEDVATYYCQQYSILPWTFGGGTKVEIKR	0.47 nM
hCAN04 Variant 2 (antibody, human IgG1, kappa, V domains shown, Human IgG1za / kappa, expressed in CHOK1SV cells; also called Var2; humanized variant 2 of CAN04) VH: QVQLVQSGAEVKKPGSSVKVSCKASGYAFTSSWMNWVRQAPGQGLEWMGRIYPGDGNTHYAQKFQGRVTLTADKSTSTAYMELSSLRSEDTAVYYCGEGYLDPMDYWGQGTLVTVSS VL: DIQMTQSPSSLSASVGDRVTITCSASQGINNYLNWYQQKPGKAPKLLIHYTSGLHAGVPSRFSGSGSGTDYTLTISSLQPEDVATYYCQQYSILPWTFGGGTKVEIKR	0.171 nM
hCAN04 Variant 1 (antibody, human IgG1, kappa, V domains shown, Human IgG1za / kappa, expressed in CHOK1SV cells; also called Var1; humanized variant 1 of CAN04) VH: QVQLVQSGAEVKKPGSSVKVSCKASGYAFSSSWMNWVRQAPGQGLEWMGRIYPGDGNTHYAQKFQGRVTLTADKSTSTAYMELSSLRSEDTAVYYCGEGYLDPMDYWGQGTLVTVSS VL: DIQMTQSPSSLSASVGDRVTITCSASQGINNYLNWYQQKPGKAPKLLIHYTSGLHAGVPSRFSGSGSGTDYTLTISSLQPEDVATYYCQQYSILPWTFGGGTKVEIKR	0.125 nM

Target: T2, human IL1RAP (analyte of the Biacore study) (human, UniProt Q9NPH3 21-367, limits assumed)
T2 construct: The methods say only 'the analyte (100 nM)'; The result sentence names it human IL1RAP; also called IL1-RAP protein; the analyte
Assay: SPR (Biacore T200), antibody captured on anti-mouse IgG, analyte 100 nM, 25 C
Method: Goat anti-mouse IgG was immobilized on a CM5 chip according to the technical manual of capture kit and standard operation principle of BIAcore T200 (Biacore Life Sciences, GE Healthcare Europe GmbH, Uppsala, Sweden).
The capture molecule surface was regenerated after each binding cycle using the manufacturer's recommended conditions.
After five cycles of start-up, each antibody (100 nM) was injected at a flow rate of 30 μl/min, for 120 s, at the start of the cycle; then the analyte (100 nM) was injected at a flow rate of 30 μl/min, for 120 s, followed by monitoring the dissociation phase for 300 s.

Kd	koff	kon	Binder
0.11 nM	4.72e-05 s⁻¹	427000 M⁻¹ s⁻¹	CAN04 (antibody, V domains shown, Murine-derived monoclonal IgG; It was PE-conjugated on primary cells and AF488-labelled for confocal microscopy; also called exemplary antibody of the invention) VH: QVQLQQSGPELLKPGASVKISCKASGYAFSSSWMNWVKQRPGKGLEWIGRIYPGDGNTHYSGKFKGKATLTADKSSSIAYMQLSSLTSEDSAVYFCGEGYLDPMDYWGQGTSVTVSS VL: DIQMTQTTSSLSASLGDRVTISCSASQGINNYLNWYQQKPDGTVKLLIHYTSGLHAGVPSRFSGSGSGTDYSLTISNLEPEDVATYYCQQYSILPWTFGGGTKLEIKR
